Patent US20160199473A1 (Johns Hopkins, published 2016)

B1: Mesothelin A2(20-28) (peptide)
peptide: SLLFLLFSL
notes: Synthetic nonamer from mesothelin; legends print the position as 20-29; also called Mesothelin A220-29; MesoA2(20-29)
B2: Mesothelin A1309-318 binding epitope (EIDESLIFY) (peptide)
peptide: EIDESLIFY
notes: also called Mesothelin A1309-318 peptide
B3: PSCA (43-51) peptide QLGEQCWTA (peptide)
peptide: QLGEQCWTA
notes: Synthetic nonamer from prostate stem cell antigen; also called PSCA A3(43-51); PSCA A243-51
B4: PSCA (5-13) peptide LLALLMAGL (peptide)
peptide: LLALLMAGL
notes: Synthetic nonamer from prostate stem cell antigen; also called PSCA A2(5-13); PSCA A3(5-13)
B5: PSCA (14-22) peptide ALQPGTALL (peptide)
peptide: ALQPGTALL
notes: Synthetic nonamer from prostate stem cell antigen; also called PSCA A2(14-22); PSCA A3(14-22)
B6: PSCA (109-117) peptide LLPALGLLL (peptide)
peptide: LLPALGLLL
notes: Synthetic nonamer from prostate stem cell antigen; also called PSCA A3(109-117); PSCA A24(109-117)
B7: PSCA (99-107) peptide ALQPAAAIL (peptide)
peptide: ALQPAAAIL
notes: Synthetic nonamer from prostate stem cell antigen; also called PSCA A3(99-107); PSCA A24(99-107)
B8: PSCA (20-28) peptide ALLCYSCKA (peptide)
peptide: ALLCYSCKA
notes: Synthetic nonamer from prostate stem cell antigen; also called PSCA A3(20-28); PSCA A320-28
B9: PSCA (108-116) peptide ALLPALGLL (peptide)
peptide: ALLPALGLL
notes: Synthetic nonamer from prostate stem cell antigen; also called PSCA A2(108-116); PSCA A24(108-116)
B10: Mesothelin A3(225-234) (peptide)
peptide: ALQGGGPPY
notes: Synthetic nonamer from mesothelin; printed range spans ten positions; also called MesoA3(225-234)
B11: Mesothelin A3(83-92) (peptide)
peptide: ELAVALAQK
notes: Synthetic nonamer from mesothelin; printed range spans ten positions; also called MesoA3(83-92)
B12: Mesothelin A2(530-538) (peptide)
peptide: VLPLTVAEV
notes: Synthetic nonamer from mesothelin; legends print the position as 530-539; also called Mesothelin A2530-539; MesoA2(530-539)

Each binder was assayed against T1, HLA-A2 (HLA-A*0201 allele) on T2 cells (human) (assay: T2 peptide/MHC binding assay, flow cytometry with W6/32).
T1 construct: whole, on cells; MHC class I molecule on the surface of T2 cells; also called T2-A2 cells
Excerpt: (§1) Peptide pulsed cells were stained with an unlabeled mouse anti-HLA class I molecule monoclonal antibody W6/32 and a goat-anti-mouse FITC-labeled IgG2a secondary antibody. FIG. 1E. T2 cells genetically modified to express A3 and pulsed with either: Mesothelin A1309-318 binding peptide (green line), PSCA A399-107 (pink line), A35-13 (blue line), A314-22 (orange line), A3109-117 (purple line), A343-51 (red line), and PSCA A320-28 (yellow line). Peptide pulsed cells were stained with an unlabeled mouse anti-human HLA-A3 specific monoclonal antibody GAPA3 and a FITC-labeled IgG2a secondary antibody. FIG. 1F. T2 cells genetically modified to express A24 and pulsed with either: Mesothelin A1309-318 peptide (green line), PSCA A2476-84 (pink line), PSCA A24108-116 (blue line), PSCA A2499-107 (orange line), PSCA A24109-117 (purple line), and PSCA A2477-85 (red line). Peptide pulsed cells were stained with an unlabeled pan-HLA antibody W6/32 and a FITC-labeled IgG2a secondary antibody.
(§2) Binding of these epitopes to their respective HLA class I molecule was tested by pulsing TAP deficient T2 cells that expressed the corresponding HLA class I molecule (T2-A2, T2-A3, or T2-A24 cells). […]
(§3) Materials and Methods: Peptide/MHC binding Assays. […] Peptide binding was determined by FACS (Beckon Dickenson, San Jose, Calif.) analysis.

Binder	binding result
B1	binds
B2	no binding

Each binder was assayed against T2, HLA-A3 (HLA-A301 allele) on T2-A3 cells (human) (assay: T2 binding assay, flow cytometry with GAPA3 (FIG. 1E)).
T2 construct: whole, on cells; MHC class I molecule on the surface of T2-A3 cells
Excerpt: as §1
(§4) Binding of these epitopes to their respective HLA class I molecule was tested by pulsing TAP deficient T2 cells that expressed the corresponding HLA class I molecule (T2-A2, T2-A3, or T2-A24 cells). […] Binding of T2 cells pulsed with two candidate mesothelin derived HLA-A3 and two candidate HLA-A24 epitopes are shown in FIG. 1B and FIG. 1C, respectively. A similar binding experiment was done with the PSCA derived peptides for HLA-A2, HLA-A3, and HLA-A24. (FIG. 1D, FIG. 1E and FIG. 1F).
(§5) Materials and Methods: Peptide/MHC binding Assays. T2 cells expressing the HLA molecule of interest were resuspended in AimV serum free media (Gibco) to a concentration of 2.5×10⁵ cells/ml and pulsed with 100-200 micrograms of peptide at room temperature overnight. Pulsing at room temperature allows for optimizing the number of empty HLA molecules available for binding each epitope (30). The cells were washed and resuspended at 1×10⁵ cells/ml. Peptide binding was determined by FACS (Beckon Dickenson, San Jose, Calif.) analysis.

Binder	binding result
B3	binds
B4	binds
B5	binds
B6	binds
B7	binds
B8	binds

Each binder was assayed against T1, HLA-A2 (HLA-A*0201 allele) on T2 cells (assay: T2 binding assay, flow cytometry with W6/32 (FIG. 1D)).
Excerpt: as §1, §4, §5

Binder	binding result
B9	binds
B3	binds
B4	binds
B5	binds

What follows are binders tested against T2, HLA-A3 (HLA-A301 allele) on T2-A3 cells (assay: T2 binding assay, flow cytometry with GAPA3 (FIG. 1B)).
Excerpt: as §1, §2, §3

Binder	binding result
B10	binds
B11	binds

The binders below were run against T1, HLA-A2 (HLA-A*0201 allele) on T2 cells (assay: T2 binding assay, flow cytometry with W6/32 (FIG. 1A)).
Excerpt: as §1, §2, §3

Binder	binding result
B12	binds
